Data published in article PMC8184944, “Crystal structures of aconitase X enzymes from bacteria and archaea provide insights into the molecular evolution of the aconitase superfamily” (Communications Biology, 2021).

B1: AtAcnX (Agrobacterium fabrum str. C58) (protein)
chain: MSSAVSTTAAPEARSILAGAAEGKVIATTEALSFWGGVDPATGKVIDVHHPLHGICLTGGVLFMPTSRGSCTGSGVLLDLILTGRAPSALVFCEAEDVLTLGALVAAEMFDKALPVIRLDAETFSRFSRAAHVSIDQNTIKADGVSLAIAPPATAHLDLNDDDRAMLVGRDGIAVRQAMRIIVAMAAQQGASALVDVTQGHIDGCIYASPANLTFAEKMADMGGKVRAPSTMNAISVDKANWRAQGVPEDFGDPAARLADAYVRMGCKPTFTCSPYLLDSAPSAGESIAWAESNAVIFANTVLGARTAKHPDFLDLCIAMTGRAPLSGVYIEENRRPQRIVDVALPAGIDDAFWPLVGYLAGKAAPDCIPLLRGLGAAKPSRDDLKALCAAFGTTSASPMLHIEGATPEAGLAPLETAETVTISLQDMAAAWSLLNDGPEEVQLVAIGSPHASLEECRALAAVFAGRKRRADVAVIVTAGQQVIDAAGKDGTLQSLKDSGVQVLPDLCWCSISEPVFPTKTRALMTNSGKYAHYGPGLSGRAVRFGSLADCVESALTGRAVSRLPVWLS
notes: E. coli BL21(DE3); monomer, ~59 kDa; [2Fe-2S] cluster

What was measured:
[1] = target: T1, TkAcnX (Thermococcus kodakarensis, UniProt Q5JGJ6+Q5JGJ7); assay: X-ray co-crystal structure, […] Å; type: binding; conditions: 40 mM MVA5P in co-crystallization; inactive form with [3Fe-4S] cluster; active site between subunits
T1 construct: gene TK1249; both subunits co-expressed in E. coli (pETDuet-1); His6 tag on small subunit cut off with 3C protease; heterodimer ~24 + ~42 kDa
T1 sequence (Q5JGJ7 whole entry): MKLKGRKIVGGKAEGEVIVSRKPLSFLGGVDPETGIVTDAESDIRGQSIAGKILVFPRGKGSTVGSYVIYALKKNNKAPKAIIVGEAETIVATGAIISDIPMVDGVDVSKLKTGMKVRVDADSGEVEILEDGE
T1 sequence (Q5JGJ6 whole entry): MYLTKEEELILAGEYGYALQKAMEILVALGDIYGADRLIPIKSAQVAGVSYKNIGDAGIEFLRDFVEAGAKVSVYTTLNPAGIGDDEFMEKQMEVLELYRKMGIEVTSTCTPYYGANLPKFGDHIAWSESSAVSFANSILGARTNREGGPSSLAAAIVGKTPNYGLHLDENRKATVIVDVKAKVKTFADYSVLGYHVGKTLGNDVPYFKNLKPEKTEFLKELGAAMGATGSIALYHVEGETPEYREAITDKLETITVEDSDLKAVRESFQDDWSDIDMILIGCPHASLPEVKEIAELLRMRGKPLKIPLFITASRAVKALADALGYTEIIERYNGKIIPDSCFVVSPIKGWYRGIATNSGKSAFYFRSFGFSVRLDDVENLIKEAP

[2] = substrate: O=C(O)[C@H]1NCC[C@H]1O; assay: coupled spectrophotometric assay with NADH-dependent Pyr2C reductase; type: biochemical, Agrobacterium fabrum; conditions: free enzyme; coupling with NADH

| Molecule | X-ray co-crystal structure, 1.9 Å [1] | Km [2] [µM] | kcat [2] [s⁻¹] |
| --- | --- | --- | --- |
| C[C@@](O)(CCOP(=O)(O)O)CC(=O)O [MVA5P] | co-crystallized the wild-type enzyme of TkAcnX (inactive form) with MVA5P | – | – |
| B1 | – | 1160 ± 110 | 33.33 ± 2.77 |
